The text below walks through data of article PMC8551160, “Structure of PDE3A–SLFN12 complex and structure-based design for a potent apoptosis inducer of tumor cells” (Nature Communications, 2021).

The data set deals with the molecule itself. In words: cryo-EM structure; PDE3A-SLFN12 (K213R) complex purified from nauclefine-treated HeLa cells; single-particle, C2 symmetry, 3.2 Å.

B1: phosphodiesterase 3A (PDE3A), endogenous (enzyme, human (endogenous in HeLa), UniProt Q14432 1-1141, looked up)
chain: MAVPGDAARVRDKPVHSGVSQAPTAGRDCHHRADPASPRDSGCRGCWGDLVLQPLRSSRKLSSALCAGSLSFLLALLVRLVRGEVGCDLEQCKEAAAAEEEEAAPGAEGGVFPGPRGGAPGGGARLSPWLQPSALLFSLLCAFFWMGLYLLRAGVRLPLAVALLAACCGGEALVQIGLGVGEDHLLSLPAAGVVLSCLAAATWLVLRLRLGVLMIALTSAVRTVSLISLERFKVAWRPYLAYLAGVLGILLARYVEQILPQSAEAAPREHLGSQLIAGTKEDIPVFKRRRRSSSVVSAEMSGCSSKSHRRTSLPCIPREQLMGHSEWDHKRGPRGSQSSGTSITVDIAVMGEAHGLITDLLADPSLPPNVCTSLRAVSNLLSTQLTFQAIHKPRVNPVTSLSENYTCSDSEESSEKDKLAIPKRLRRSLPPGLLRRVSSTWTTTTSATGLPTLEPAPVRRDRSTSIKLQEAPSSSPDSWNNPVMMTLTKSRSFTSSYAISAANHVKAKKQSRPGALAKISPLSSPCSSPLQGTPASSLVSKISAVQFPESADTTAKQSLGSHRALTYTQSAPDLSPQILTPPVICSSCGRPYSQGNPADEPLERSGVATRTPSRTDDTAQVTSDYETNNNSDSSDIVQNEDETECLREPLRKASACSTYAPETMMFLDKPILAPEPLVMDNLDSIMEQLNTWNFPIFDLVENIGRKCGRILSQVSYRLFEDMGLFEAFKIPIREFMNYFHALEIGYRDIPYHNRIHATDVLHAVWYLTTQPIPGLSTVINDHGSTSDSDSDSGFTHGHMGYVFSKTYNVTDDKYGCLSGNIPALELMALYVAAAMHDYDHPGRTNAFLVATSAPQAVLYNDRSVLENHHAAAAWNLFMSRPEYNFLINLDHVEFKHFRFLVIEAILATDLKKHFDFVAKFNGKVNDDVGIDWTNENDRLLVCQMCIKLADINGPAKCKELHLQWTDGIVNEFYEQGDEEASLGLPISPFMDRSAPQLANLQESFISHIVGPLCNSYDSAGLMPGKWVEDSDESGDTDDPEEEEEEAPAPNEEETCENNESPKKKTFKRRKIYCQITQHLLQNHKMWKKVIEEEQRLAGIENQSLDQTPQSHSSEQIQAIKEEEEEKGKPRGEEIPTQKPDQ
notes: PDE3A, human, endogenous in HeLa cells; appeared as its full length in the purification; only the catalytic domain K669-Q1102 is resolved in the cryo-EM maps; the purified band is called full length; It is a homodimer in the complex structures; source: endogenous, HeLa; in lysate (co-IP); co-purified with tagged SLFN12 by Flag-HA tandem pull-down (cryo-EM)
For the protein B1, the “stoichiometry N” value was determined as 2.

Usually stoichiometry N stands for the number of molecules, sites or subunits per partner or assembly.
